Results on 1 protein are retold here after FireProtDB (doi:10.1021/bi801431x).

The conditions of this series: Escherichia coli (strain K12); pH 7.5; 25 °C; Urea; Fluorescence; Potassium phosphate 20 mM; reversible: Yes; whole UniProt chain shown.

Several values for one entry are separate records, joined by “and”; a condition that tells them apart may be missing. Identical values can stand only once.

B1: Aspartate aminotransferase wild type, P00509 (protein)
chain: MFENITAAPADPILGLADLFRADERPGKINLGIGVYKDETGKTPVLTSVKKAEQYLLENETTKNYLGIDGIPEFGRCTQELLFGKGSALINDKRARTAQTPGGTGALRVAADFLAKNTSVKRVWVSNPSWPNHKSVFNSAGLEVREYAYYDAENHTLDFDALINSLNEAQAGDVVLFHGCCHNPTGIDPTLEQWQTLAQLSVEKGWLPLFDFAYQGFARGLEEDAEGLRAFAAMHKELIVASSYSKNFGLYNERVGACTLVAADSETVDRAFSQMKAAIRANYSNPPAHGASVVATILSNDALRAIWEQELTDMRQRIQRMRQLFVNTLQEKGANRDFSFIIKQNGMFSFSGLTKEQVLRLREEFGVYAVASGRVNVAGMTPDNMAPLCEAIVAVL
For the protein B1, the “denaturant midpoint (higher = more stable)” value was 3.89 M and 5.02 M.
